Data set [1] concerns MS2 coat protein. Description: apparent KD of MS2 coat protein, switch OFF state (with FMN for OFF switches, without FMN for ON switches); designed switch direction (-1 OFF switch, 1 ON switch): 1; higher = weaker reporter binding. The following applies: FMN input: 0 or 200 uM; Eterna round: R93 (includes R88 designs). In outline:
(§1)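 Each design's apparent KD comes from the median of binding-curve fits to its normalised clusters. Those clusters carried RNA switches transcribed on-chip from Illumina sequencing clusters. SNAP-549-labelled MS2 coat protein was titrated onto them in twofold steps (0.7 or 1.5 nM to 3 µM; per step 0.8–1.5 h down to 10–20 min). Conditions were 100 mM Tris-HCl pH 7.5, 80 mM KCl, 4 mM MgCl2, without or with constant ligand.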

For data set [2], the system named is MS2 coat protein. Description: apparent KD of MS2 coat protein, switch ON state; designed switch direction (-1 OFF switch, 1 ON switch): 1; higher = weaker reporter binding. The following applies: FMN input: 0 or 200 uM; Eterna round: R93 (includes R88 designs). In outline:
as §1

“AAUAUACAUGAGGAUCACCCAUGUUUUGGUGUAUGAGGAUAUAAAAAAAAUUAAAUAAAAUUAGAAGGCAUAAAUA [JR_SS001_Sub001]”: the “apparent KD of MS2 coat protein” value turned out to be 48.7 nM in the data set on MS2 coat protein [1] and 49.2 nM in the data set with MS2 coat protein [2].
In the case of “AAUAUAUUAAGUGAGGAUAUCAUAGAAAAAACAUGAGGAUCACCCAUGUGGGAAACCUGGUCGGGUGAGAAGGCACUUAAUAUAU [Samwise Clockwise 29 - Jieux - Same State 2]”, the “apparent KD of MS2 coat protein” value in the data set on MS2 coat protein [1] amounted to 704 nM; with MS2 coat protein [2], 71.4 nM.
As to “AAUAUAUUAAGUGAGGAUAUCGAGGAAAAAACAUGAGGAUCACCCAUGUGGGAAACAUGGUAGGGUGAGAAGGUACUUAAUAUAU [Samwise Clockwise 23 - Jieux - Same State 2]”, the entries for the “apparent KD of MS2 coat protein” value in the data set with MS2 coat protein [1] and in the data set with MS2 coat protein [2] were 220 nM and 218 nM, respectively.
Regarding “AAUGAACAUGAGGAUCACCCAUGUUUUAAUAGUUGAGGAUAUAAGGGUGAAAAUAGCACAUUAGAAGGCGAGUGUA [SameState1 Malc#15]”, the “apparent KD of MS2 coat protein” value with MS2 coat protein [1] came out at 38 nM; in the data set with MS2 coat protein [2], 39.4 nM.
Regarding “AAUGAACAUGAGGAUCACCCAUGUUUUAAUAGUUGAGGAUAUAUGGGUGAAAAUAGCACAGUAGAAGGCGAGUGUA [SameState1 Malc#16]”, the “apparent KD of MS2 coat protein” value amounted to 133 nM in the data set on MS2 coat protein [1] and 144 nM in the data set with MS2 coat protein [2].
For “AGAAAAAAAACGCAGGAUAUCCAAAAGAAAACAUGAGGAUCACCCAUGUAAAAGAAAAUAAAAUGGGAGAAGGGCGAAAAAAAGA [Mat - Same State 2 - Eli mod - D93]”, the entries for the “apparent KD of MS2 coat protein” value in the data set with MS2 coat protein [1] and with MS2 coat protein [2] were 18.5 nM and 9.91 nM, respectively.
In the case of “AGAAAACAUGAGGAUCACCCAUGUAGAAACAUGGGAGGAUAUACAAAGACGAAAGUCAAAGUAGAAGGCCUAAAGA [Mat - Same State 1 - Mod - D161]”, the “apparent KD of MS2 coat protein” value in the data set with MS2 coat protein [1] amounted to 152 nM; in the data set on MS2 coat protein [2] it was 207 nM.
In the case of “AGAAAACAUGAGGAUCACCCAUGUAGAAAUAUGGGAGGAUAUACAAAGACGAAAGUCGAAGUAGAAGGCCUAAAGA [Mat - Same State 1 - Meechl mod - D123]”, the “apparent KD of MS2 coat protein” value in the data set on MS2 coat protein [1] turned out to be 58.7 nM; in the data set with MS2 coat protein [2], 22 nM.
In the case of “AGAAAACAUGAGGAUCACCCAUGUGAUAAUAUGGGAGGAUAUACGGAGACGAAAGUCGACGUAGAAGGCCUAAAGA [Garnet 49]”, the “apparent KD of MS2 coat protein” value is 82.8 nM in the data set on MS2 coat protein [1] and 42.9 nM in the data set on MS2 coat protein [2].
As to “AGAAAUAAAAGAGAGGAUAUCUUAAAGAAAACAUGAGGAUCACCCAUGUAAAAGAAAAUAAAAUGGGAGAAGGCUCAUAAUAAAG [JL Skelter Mod 4 In the Red]”, the “apparent KD of MS2 coat protein” value stood at 109 nM in the data set with MS2 coat protein [1] and 151 nM with MS2 coat protein [2].
On to “AGAAAUAAAGCAGAGGAUAUCCAAAAGAAAACAUGAGGAUCACCCAUGUAAAAGAAAAUAAAAUGGGAGAAGGCUGCAAAUAAAG”, for which the figures for the “apparent KD of MS2 coat protein” value in the data set with MS2 coat protein [1] and with MS2 coat protein [2] were 23.9 nM and 18.5 nM, respectively.
For “AGGAAACAUGAGGAUCACCCAUGUAAAAAAAUGGGAGGAUAUCCGCAUUAAUUAAAUGAAGGAGAAGGCCUAAAAA [71%, Same state of confusion2, 5]”, the “apparent KD of MS2 coat protein” value in the data set with MS2 coat protein [1] is 63.1 nM; in the data set on MS2 coat protein [2] it was 21.6 nM.
Turning to “AGGAAACAUGAGGAUCACCCAUGUAAAAAAGUGGGAGGAUAUGCGAAAAGAAAAAGAAAAGCAGAAGGCCUAAGAA [62%, Something completely different, 6]”, the entries for the “apparent KD of MS2 coat protein” value in the data set on MS2 coat protein [1] and with MS2 coat protein [2] were 42.7 nM and 21.9 nM, respectively.
Take “AGGAAACAUGAGGAUCACCCAUGUAAAAAUAUGGGAGGAUAUACGAAGACGAAAGAAAAAGUAGAAGGCCUAAAAG [Garnet 14]”: the “apparent KD of MS2 coat protein” value amounted to 155 nM in the data set on MS2 coat protein [1] and 63.6 nM in the data set on MS2 coat protein [2].
In the case of “AGGAAACAUGAGGAUCACCCAUGUAAAAAUAUGGGAGGAUAUACGAAGACGAAAGUAAGAGUAGAAGGCCUAAAAG [Garnet 9]”, the “apparent KD of MS2 coat protein” value in the data set on MS2 coat protein [1] amounted to 90.6 nM; in the data set with MS2 coat protein [2], 23.9 nM.
For the sequence “AGGAAACAUGAGGAUCACCCAUGUAAAAAUAUGGGAGGAUAUACGAAGACGAAAGUGAGAGUAGAAGGCCUAAAAG [Garnet 8]”, the “apparent KD of MS2 coat protein” value is 87.7 nM in the data set with MS2 coat protein [1] and 30.9 nM in the data set with MS2 coat protein [2].
As for “AGGAAACAUGAGGAUCACCCAUGUAAAAAUAUGGGAGGAUAUGCGAAAAGAAACAAAGAAGCAGAAGGCCUAAAAA [75%, Ex sub1, 21]”, the “apparent KD of MS2 coat protein” value with MS2 coat protein [1] was found to be 66.9 nM; with MS2 coat protein [2] it was 21.9 nM.
Turning to “AGGAAACAUGAGGAUCACCCAUGUAAAAGGUGGUUAGGAUAUGCGAUAAUAAAAAUAAUAGCAGAAGGGACAAGAA [Same State of Confusion3 mod Fisker]”, the results for the “apparent KD of MS2 coat protein” value in the data set with MS2 coat protein [1] and with MS2 coat protein [2] were 416 nM and 215 nM, respectively.
Take “AGGAAACAUGAGGAUCACCCAUGUAAAGAUGGAGGAGGAUAUCGAAAGAAAAGAAAGAAACGAGAAGGCCUAAAAG [59%, Flamingo, 2]”: the “apparent KD of MS2 coat protein” value was 99.2 nM in the data set with MS2 coat protein [1] and 20.9 nM in the data set with MS2 coat protein [2].
For “AGGAAACAUGAGGAUCACCCAUGUAAGAUAAACACAGGAUAUGCGAAAAGAAACAAAGAAGCAGAAGGGUGAAGAA [75%, Ex5 sub 1, 1]”, the “apparent KD of MS2 coat protein” value in the data set on MS2 coat protein [1] was 35.6 nM; in the data set on MS2 coat protein [2], 20.6 nM.
As for “AGGAAACAUGAGGAUCACCCAUGUAUAAAAAUGGAAGGAUAUACUAAGACGAAAGUCAUAGUAGAAGGUCUAAAAA [76%, Meechl, 10]”, the “apparent KD of MS2 coat protein” value with MS2 coat protein [1] stood at 20.7 nM; with MS2 coat protein [2], 16.6 nM.
As for “AGGAGACAUGAGGAUCACCCAUGUAGAAGGAUGGGAGGAUAUACAAAGACGAGAGUCAGAGUAGAAGGCCUAGGGA [salish99-ss1-183(!)]”, the “apparent KD of MS2 coat protein” value in the data set on MS2 coat protein [1] turned out to be 54.1 nM; in the data set with MS2 coat protein [2] it was 24.2 nM.
Turning to “AGGAGACAUGAGGAUCACCCAUGUGAGAAGAGGCGAGGAUAUCGAAAGAAAGAAGAGAAACGAGAAGGCGCGAGUA [salish99-SS1-018]”, the results for the “apparent KD of MS2 coat protein” value with MS2 coat protein [1] and in the data set with MS2 coat protein [2] were 40.8 nM and 24.9 nM, respectively.
Take “AGGAGACAUGAGGAUCACCCAUGUGAGAAGAGGCGAGGAUAUCGAAAGAAAGAAGAGAAACGAGAAGGCGCGAGUC [salish99-SS1-030]”: the “apparent KD of MS2 coat protein” value was 37 nM in the data set on MS2 coat protein [1] and 25.6 nM in the data set with MS2 coat protein [2].
Take “AGGAGACAUGAGGAUCACCCAUGUGCGAGGUGAAGAGGAUAUAGAAGAAGAAGAAAGAAACUAGAAGGCUUAAAAA [JR_SameState1_Sub1]”: the “apparent KD of MS2 coat protein” value came out at 125 nM in the data set with MS2 coat protein [1] and 122 nM with MS2 coat protein [2].
For the sequence “AUAAAACAUGAGGAUCACCCAUGUAAAAAUAUGGGAGGAUAUGCGAAAUAAAAUAAAUAAGCAGAAGGCCUAAAAA [SS! MT 19]”, the “apparent KD of MS2 coat protein” value in the data set on MS2 coat protein [1] was found to be 174 nM; with MS2 coat protein [2] it was 11.9 nM.
The corresponding values for “AUAUGAGCUAUGGAGGAUAUCCAUAACAAGACAUGAGGAUCACCCAUGUAAGAAAGAAAAGAAUGGGAGAAGGCCAUAGCUCAAU [SS 2 M46]” are 63.7 nM and 37.9 nM.
“AUAUGAGCUAUUGAGGAUAUCCAUAACAAGACAUGAGGAUCACCCAUGUAAUCAAAACAAUAAUGGGAGAAGGCAAUAGCUCAAU [SS 2 M48]”: the figures for the “apparent KD of MS2 coat protein” value with MS2 coat protein [1] and with MS2 coat protein [2] were 44.1 nM and 36.7 nM, respectively.
The corresponding values for “AUUACAUCUAGUUAGGAUAUCAGAUGUAAGACAUGAGGAUCACCCAUGUCCUAAGAAUAGGUAACUGAGAAGGAACAGGGAGUAU [JR_SS002_Sub418]” are 26.8 nM and 23.4 nM.

The record behind these values is the supplement of paper PMC9170038.
